Laboratory results as given in patent US12570994B2, “Plants having increased tolerance to herbicides” (BASF AGRO B.V., priority 2010, dated 2026).

B1: F420M: amino acid substituted PPO enzyme F420M (protein, listed as Amaranthus tuberculatum)
chain: MVIQSITHLSPNLALPSPLSVSTKNYPVAVMGNISEREEPTSAKRVAVVGAGVSGLAAAYKLKSHGLSVTLFEADSRAGGKLKTVKKDGFIWDEGANTMTESEAEVSSLIDDLGLREKQQLPISQNKRYIARDGLPVLLPSNPAALLTSNILSAKSKLQIMLEPFLWRKHNATELSDEHVQESVGEFFERHFGKEFVDYVIDPFVAGTCGGDPQSLSMHHTFPEVWNIEKRFGSVFAGLIQSTLLSKKEKGGENASIKKPRVRGSFSFQGGMQTLVDTMCKQLGEDELKLQCEVLSLSYNQKGIPSLGNWSVSSMSNNTSEDQSYDAVVVTAPIRNVKEMKIMKFGNPFSLDFIPEVTYVPLSVMITAFKKDKVKRPLEGFGVLIPSKEQHNGLKTLGTLFSSMMFPDRAPSDMCLFTTMVGGSRNRKLANASTDELKQIVSSDLQQLLGTEDEPSFVNHLFWSNAFPLYGHNYDSVLRAIDKMEKDLPGFFYAGNHKGGLSVGKAMASGCKAAELVISYLDSHIYVKMDEKTA
B2: R128A: amino acid substituted PPO enzyme R128A (protein, listed as Amaranthus tuberculatum)
chain: MVIQSITHLSPNLALPSPLSVSTKNYPVAVMGNISEREEPTSAKRVAVVGAGVSGLAAAYKLKSHGLSVTLFEADSRAGGKLKTVKKDGFIWDEGANTMTESEAEVSSLIDDLGLREKQQLPISQNKAYIARDGLPVLLPSNPAALLTSNILSAKSKLQIMLEPFLWRKHNATELSDEHVQESVGEFFERHFGKEFVDYVIDPFVAGTCGGDPQSLSMHHTFPEVWNIEKRFGSVFAGLIQSTLLSKKEKGGENASIKKPRVRGSFSFQGGMQTLVDTMCKQLGEDELKLQCEVLSLSYNQKGIPSLGNWSVSSMSNNTSEDQSYDAVVVTAPIRNVKEMKIMKFGNPFSLDFIPEVTYVPLSVMITAFKKDKVKRPLEGFGVLIPSKEQHNGLKTLGTLFSSMMFPDRAPSDMCLFTTFVGGSRNRKLANASTDELKQIVSSDLQQLLGTEDEPSFVNHLFWSNAFPLYGHNYDSVLRAIDKMEKDLPGFFYAGNHKGGLSVGKAMASGCKAAELVISYLDSHIYVKMDEKTA
B3: F420L: amino acid substituted PPO enzyme F420L (protein, listed as Amaranthus tuberculatum)
chain: MVIQSITHLSPNLALPSPLSVSTKNYPVAVMGNISEREEPTSAKRVAVVGAGVSGLAAAYKLKSHGLSVTLFEADSRAGGKLKTVKKDGFIWDEGANTMTESEAEVSSLIDDLGLREKQQLPISQNKRYIARDGLPVLLPSNPAALLTSNILSAKSKLQIMLEPFLWRKHNATELSDEHVQESVGEFFERHFGKEFVDYVIDPFVAGTCGGDPQSLSMHHTFPEVWNIEKRFGSVFAGLIQSTLLSKKEKGGENASIKKPRVRGSFSFQGGMQTLVDTMCKQLGEDELKLQCEVLSLSYNQKGIPSLGNWSVSSMSNNTSEDQSYDAVVVTAPIRNVKEMKIMKFGNPFSLDFIPEVTYVPLSVMITAFKKDKVKRPLEGFGVLIPSKEQHNGLKTLGTLFSSMMFPDRAPSDMCLFTTLVGGSRNRKLANASTDELKQIVSSDLQQLLGTEDEPSFVNHLFWSNAFPLYGHNYDSVLRAIDKMEKDLPGFFYAGNHKGGLSVGKAMASGCKAAELVISYLDSHIYVKMDEKTA

How the values were obtained:
wild type PPO enzyme = wild type PPO enzyme (Amaranthus tuberculatus, UniProt Q0NZW9); assay: PPO enzyme assay (recombinant), wild type; type: biochemical; conditions: 150 μM Protogen
[1] = test system: Chlamydomonas reinhardtii; assay: Selection of mutagenized algae cells on solid medium with herbicide; conditions: solid medium containing 1×10^−7 M
Protocol: Algae cells of Chlamydomonas reinhardtii strains CC-503 and CC-1691 (Duke University, Durham, USA) are propagated in TAP medium (Gorman and Levine (1965) PNAS 54:1665-1669) by constant shaking at 100 rpm, 22° C. and 30 μmol Phot*m^−2*s^−2 light illumination. […] Compound screening is performed at 450 μmol Phot*m^−2*s^−2 illumination.
Sensitive strains of Chlamydomonas reinhardtii or Scenedesmus obliquus are mutated with 0.14 M ethylmethanesulfonate (EMS) for 1 h as described by Loppes (1969, 20 Mol Gen Genet 104:172-177) Tolerant strains are identified by screening of mutagenized cells on solid nutrient solution plates containing benzoxazinone-derivative herbicide of interest at low to lethal concentrations depending on compound activity in specific algae strain.
(A) Mutagenized cells plated on solid medium without a selecting agent. (B) Mutagenized cells plated on solid medium containing 1×10^−7 M benzoxazinone-derivative I.a.35.

[2] = Enzyme activity of recombinant wild type and substituted PPO enzymes; conditions: fluorescence unit change per minute

Row | Molecule | IC50 (wild type PPO enzyme) [nM] | growth of mutagenized Chlamydomonas reinhardtii cells (colony formation) [1] | Activity (FU/min) [2] [FU/min]
1 | C#CCN1C(=O)C(F)(F)Oc2cc(F)c(-n3c(=O)n(C)c(=S)n(C)c3=O)cc21 [benzoxazinone 1.a.35] | 0.12 | susceptible cells do not grow | 
2 | B1 |  |  | 353
3 | B2 |  |  | 731
4 | B3 |  |  | 203
